# Measured values reported in patent publication US20100317723, “Nucleolin Specific Aptamer and Use thereof” (POSTECH ACADEMY-INDUSTRY FOUDATION, published 2010).
# B1: 1642-39 (ssDNA)
# DNA: TTTGGTGGTGGTGGTTGTGGTGGTGGTGG
# modifications: BzdU at T15, T16
# B2: GRO29A (Cy3-1641-3) (ssDNA)
# DNA: TTTGGTGGTGGTGGTTGTGGTGGTGGTGG
# B3: 1642-19 (ssDNA)
# DNA: TTTGGTGGTGGTGGTTGTGGTGGTGGTGG
# modifications: BzdU at T27
# B4: 1642-11 (ssDNA)
# DNA: TTTGGTGGTGGTGGTTGTGGTGGTGGTGG
# modifications: BzdU at T6
# B5: 1642-30 (ssDNA)
# DNA: TTTGGTGGTGGTGGTTGTGGTGGTGGTGG
# modifications: BzdU at T9, T27
# B6: 1642-51 (ssDNA)
# DNA: TTTGGTGGTGGTGGTTGTGGTGGTGGTGG
# modifications: BzdU at T1, T3, T15, T16
# B7: 1642-49 (ssDNA)
# DNA: TTTGGTGGTGGTGGTTGTGGTGGTGGTGG
# modifications: BzdU at T2, T3, T15, T16
# B8: 1642-13 (ssDNA)
# DNA: TTTGGTGGTGGTGGTTGTGGTGGTGGTGG
# modifications: BzdU at T12
# Experiments:
# [1] = target: T1, Nucleolin (cell-surface, C6 rat glioma cells) (UniProt P13383 P13383:1-713); assay: C6 cell fluorescence, about 1.5 fold or more, 20 nM; confirmed by confocal; details: tags: endogenous on C6 cells (ATCC); label: 5'-Cy3; G4
# T1 sequence (P13383 whole entry, one chain of several): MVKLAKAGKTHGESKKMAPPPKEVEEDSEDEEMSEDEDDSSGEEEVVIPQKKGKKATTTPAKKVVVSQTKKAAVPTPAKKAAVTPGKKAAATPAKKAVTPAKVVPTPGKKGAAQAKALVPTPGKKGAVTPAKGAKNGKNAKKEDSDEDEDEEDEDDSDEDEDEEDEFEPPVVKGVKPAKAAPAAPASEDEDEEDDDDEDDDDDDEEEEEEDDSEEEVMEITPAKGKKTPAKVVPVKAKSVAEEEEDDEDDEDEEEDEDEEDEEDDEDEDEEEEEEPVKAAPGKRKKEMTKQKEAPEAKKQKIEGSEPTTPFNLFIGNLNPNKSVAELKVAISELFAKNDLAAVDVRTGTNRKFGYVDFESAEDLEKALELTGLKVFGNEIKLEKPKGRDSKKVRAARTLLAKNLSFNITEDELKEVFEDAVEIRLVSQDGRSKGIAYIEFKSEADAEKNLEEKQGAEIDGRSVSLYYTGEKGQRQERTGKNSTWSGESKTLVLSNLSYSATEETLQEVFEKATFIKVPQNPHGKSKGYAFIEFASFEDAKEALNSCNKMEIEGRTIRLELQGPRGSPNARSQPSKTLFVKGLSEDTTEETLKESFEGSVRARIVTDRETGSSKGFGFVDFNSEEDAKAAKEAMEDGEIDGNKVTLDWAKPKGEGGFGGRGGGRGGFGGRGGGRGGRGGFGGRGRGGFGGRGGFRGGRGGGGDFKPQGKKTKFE
# Procedure: (§1) To determine the targeting efficiency of the cancers, fluorescence intensities of forty-seven Cy3-labeled BzdU-containing GRO29A and eighteen Cy3-labeled NapdU-containing GRO29A compounds were quantified to evaluate their targeting efficiency at C6 cells by the Varioskan Flash spectral scanning multimode reader (Thermo Fisher Scientific Inc. Waltham, Mass.; excitation: 535 nm, scanning wavelength: 570 nm with a band width: 12 nm). C6 cells were seeded 1×10⁵ cell density onto Magne to FACTION 24 plate (Chemicell, GmbH, Germany) and caring at a 5% CO₂-humidified chamber. After 24 hours of grown, these seeded cells were incubated in DMEM (Dubelocos' modified essential media) with 20 nM of Cy3-labeled GRO29A or AS1411, or 20 nM of each of the Cy3-labeled modified dU-containing GRO29A or AS1411 compounds at for 30 minute at 4° C. for decreasing non-specific binding during 30 min and rinsed by PBS (1×), then replaced to 200 μl Tris buffer, and then treated with each of 47 different compounds (20 pmole). […] These cells were collected by PBS (1×) (120 μl) and transferred into 96-well plate (Chemicell, GmbH, Germany) for measurement of fluorescence intensity (100 μl). […]
# [2] = target: T1, Nucleolin (cell-surface, C6 rat glioma …); assay: cell fluorescence and confocal on C6 cells, 20 nM, 4 C; reference; details: tags: endogenous on C6 cells (ATCC); label: 5'-Cy3; G4
# Procedure: as §1
# [3] = target: T2, Nucleolin (cell-surface, human cancer cell lines) (UniProt P19338 P19338:2-710); assay: HeLa cell fluorescence; reference; details: tags: endogenous on HeLa, MDA-MB231, HepG2, AGS, OVCAR-3, U87MG cells (ATCC); label: 5'-Cy3; G4
# T2 sequence (P19338 2-710, one chain of several): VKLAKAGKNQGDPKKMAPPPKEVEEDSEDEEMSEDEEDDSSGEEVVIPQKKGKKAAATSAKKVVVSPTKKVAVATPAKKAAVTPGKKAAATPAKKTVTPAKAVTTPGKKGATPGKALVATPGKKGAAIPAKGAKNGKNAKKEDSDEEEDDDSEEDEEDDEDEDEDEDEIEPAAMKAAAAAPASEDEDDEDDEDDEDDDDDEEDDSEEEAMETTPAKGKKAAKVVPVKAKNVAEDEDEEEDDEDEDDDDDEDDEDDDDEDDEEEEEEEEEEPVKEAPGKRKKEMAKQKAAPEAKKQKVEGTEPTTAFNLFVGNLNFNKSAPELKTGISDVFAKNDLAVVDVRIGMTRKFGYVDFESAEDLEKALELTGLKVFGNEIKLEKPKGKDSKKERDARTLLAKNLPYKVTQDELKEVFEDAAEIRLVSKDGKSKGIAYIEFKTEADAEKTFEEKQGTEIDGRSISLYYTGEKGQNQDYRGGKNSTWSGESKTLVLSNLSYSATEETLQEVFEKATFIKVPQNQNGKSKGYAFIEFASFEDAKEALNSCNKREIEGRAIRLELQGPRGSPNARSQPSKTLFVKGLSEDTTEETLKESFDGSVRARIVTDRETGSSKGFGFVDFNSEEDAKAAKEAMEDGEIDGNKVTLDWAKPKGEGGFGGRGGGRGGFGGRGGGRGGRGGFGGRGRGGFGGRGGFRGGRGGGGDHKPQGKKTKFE
# Procedure: (§2) To determine the targeting efficiency of the cancers, fluorescence intensities of forty-seven Cy3-labeled BzdU-containing GRO29A and eighteen Cy3-labeled NapdU-containing GRO29A compounds were quantified to evaluate their targeting efficiency at C6 cells by the Varioskan Flash spectral scanning multimode reader (Thermo Fisher Scientific Inc. Waltham, Mass.; excitation: 535 nm, scanning wavelength: 570 nm with a band width: 12 nm). C6 cells were seeded 1×10⁵ cell density onto Magne to FACTION 24 plate (Chemicell, GmbH, Germany) and caring at a 5% CO₂-humidified chamber. […] These cells were collected by PBS (1×) (120 μl) and transferred into 96-well plate (Chemicell, GmbH, Germany) for measurement of fluorescence intensity (100 μl).
# (§3) To test functional activity of BzdU-containing GRO29A, the compounds numbers 1642-39, 1642-51 and 1642-19, in other cancer cells, the inventors first extended cancer targeting assay by selecting another cancer cells, HeLa (human cervix cancer cell line, ATCC), and a normal healthy cell line, CHO (chinese hamster ovary cell line, ATCC). The measurement of fluorescence intensity was performed as described above for C6 cells.
# [4] = target: T2, Nucleolin (cell-surface, human cancer …); assay: HeLa cell fluorescence; details: tags: endogenous on HeLa, MDA-MB231, HepG2, AGS, OVCAR-3, U87MG cells (ATCC); label: 5'-Cy3; G4
# Procedure: as §2, §3
# [5] = target: T1, Nucleolin (cell-surface, C6 rat glioma …); assay: C6 cell fluorescence, 20 nM; confirmed by confocal; details: tags: endogenous on C6 cells (ATCC); label: 5'-Cy3; G4
# Procedure: as §1
# [6] = target: T1, Nucleolin (cell-surface, C6 rat glioma …); assay: C6 cell fluorescence, about 1.5 fold or more, 20 nM; details: tags: endogenous on C6 cells (ATCC); label: 5'-Cy3; G4
# Procedure: To determine the targeting efficiency of the cancers, fluorescence intensities of forty-seven Cy3-labeled BzdU-containing GRO29A and eighteen Cy3-labeled NapdU-containing GRO29A compounds were quantified to evaluate their targeting efficiency at C6 cells by the Varioskan Flash spectral scanning multimode reader (Thermo Fisher Scientific Inc. Waltham, Mass.; excitation: 535 nm, scanning wavelength: 570 nm with a band width: 12 nm). C6 cells were seeded 1×10⁵ cell density onto Magne to FACTION 24 plate (Chemicell, GmbH, Germany) and caring at a 5% CO₂-humidified chamber. After 24 hours of grown, these seeded cells were incubated in DMEM (Dubelocos' modified essential media) with 20 nM of Cy3-labeled GRO29A or AS1411, or 20 nM of each of the Cy3-labeled modified dU-containing GRO29A or AS1411 compounds at for 30 minute at 4° C. for decreasing non-specific binding during 30 min and rinsed by PBS (1×), then replaced to 200 μl Tris buffer, and then treated with each of 47 different compounds (20 pmole). Then, seeded cells was washed with PBS (phosphate buffered saline) two times each for 10 min at RT using shaking incubation (30 rpm) to remove the unbound Cy3-labeled modified dU-containing GRO29A or AS1411 compounds, and subjected to trypsinization to detach from the plate surface. These cells were collected by PBS (1×) (120 μl) and transferred into 96-well plate (Chemicell, GmbH, Germany) for measurement of fluorescence intensity (100 μl).
binder,measurement,setting,value
B1,binding signal,[1],≥ 1.5 fold vs GRO29A
B2,binding signal,[2],1 fold
same,binding signal,[3],1 fold
B3,binding signal,[4],~2.3 fold vs GRO29A
same,binding signal,[5],~2.5 fold vs GRO29A
B4,binding signal,[6],≥ 1.5 fold vs GRO29A
B5,binding signal,[6],≥ 1.5 fold vs GRO29A
B6,binding signal,[1],≥ 1.5 fold vs GRO29A
B7,binding signal,[6],≥ 1.5 fold vs GRO29A
B8,binding signal,[6],≥ 1.5 fold vs GRO29A
